Results: patent US11733246B2, “Compositions, imaging, and therapeutic methods targeting folate receptor 1 (FOLR1)” (Indi Molecular, Inc., priority 2020, dated 2023)
Numbered stars: 1 amine (or outer) side, 2 acyl side, 3 side chain; on linkers, the order of the positions; unused ones are H or OH. Bridge positions count the residues as written; N and C are the ends. Square brackets hold non-standard residues; d marks the D form. Triazole bridges read from a SMILES are 1,4-linked. Side chains are listed from the residue outwards. Peptide text beside a SMILES is read from it. * marks the point of attachment. ξ: configuration not given here. DOTA = O=C(O)CN1CCN(CC(=O)O)CCN(CC(=O)*)CCN(CC(=O)O)CC1; Pteroyl = Nc1nc2ncc(CNc3ccc(C(=O)*)cc3)nc2c(=O)[nH]1; Biotin = O=C1N[C@H]2[C@H](CS[C@H]2CCCCC(=O)*)N1; Butanoyl(4-(4-I-phenyl)) = O=C(CCCc1ccc(I)cc1)*; Butanoyl(4-(4-MePh)) = Cc1ccc(CCCC(=O)*)cc1; dLys(N3) = [N-]=[N+]=NCCCC[C@@H](N)C(=O)O; Lys(N3) = [N-]=[N+]=NCCCC[C@H](N)C(=O)O; γGlu = O=C(O)[C@H](CCC(=O)[*:2])N[*:1]; AEEEA = NCCOCCOCCOCC(=O)O; Pra = C#CC[C@H](N)C(=O)O; ξPra = C#CCC(N)C(=O)O; X2 = NOCC(=O)*

What was measured:
[1] = Plasma protein binding (equilibrium dialysis), human; assay type: in vitro ADME
Description: (§1) HTD 96 a/b regenerated cellulose membrane strips with mass cutoff of 12-14 kDa were soaked in ultra-pure water at room temperature for 1 hour. Each swelled membrane was then soaked in 20:80 ethanol:water for 20 minutes.
(§2) Just prior to the experiment, the membranes were re-soaked in ultra-pure water. Plasma was prepared by thawing under cold water. The plasma was centrifuged to remove any clots and pH was adjusted to 7.0-8.0. Test articles and control compounds were diluted to 2 μM. The dialysis device was loaded by transferring 150 μL of the test article (in triplicate) to the donor side. The dialysis device was placed in a humidified incubator at 37° C. with 5% CO2 in a shaking platform that rotated slowly for 4 hours. After incubation, 50 μL of the supernatant was taken from both sides and analyzed by LC-MS/MS.
(§3) To optimize the albumin binding potential of the heterobiligand, a plasma protein binding (PPB) experiment was performed. This experiment measured the amount of test article bound and free after equilibrating with plasma. Compound #6305 (folate-hshta-Lys(MPBA)-Gly-Phe-Lys(DOTA) (SEQ ID NO:6)), which contains the MPBA albumin binder, was 96.26% bound to mouse plasma and 98.34% bound to human plasma. […] In mouse and human plasmas 99.6% and 99.5% was bound, respectively.

[2] = Plasma protein binding (equilibrium dialysis), mouse; assay type: in vitro ADME, CD-1 mouse
Description: as §1, §2, §3

[3] = tested on: OVCAR3 FOLR1+ cells; test: Flow cytometry binding to FOLR1 (+) cells; assay type: cell-based, human; settings: OVCAR3 vs PC-3, flow cytometry
Description: Both the kyeet (SEQ ID NO:9) and hshta (SEQ ID NO:6)-derived biligands were tested by flow cytometry for binding to FOLR1 (+) and FOLR1 (−) cell lines (FIGS. 6 and 7). The human ovarian adenocarcinoma-derived cell line OVCAR3 has robust FOLR1 expression and was selected as the FOLR1 (+) cell line. The human prostate adenocarcinoma-derived cell line PC-3 was selected as a FOLR1 (−) cell line.
Competition at the cellular level was also probed.
Increasing the serum-bound fraction of the peptide may decrease first pass removal of the heterobiligand, and drive compound retention of tumor over kidney. Constructs bearing the known albumin binder 4-methylphenyl butyric acid (4-MPBA) were synthesized. These compounds were evaluated in vitro to verify binding fidelity to FOLR1. The modified heterobiligands were incubated at 400 nM with OVCAR3 and PC-3 cells for 20 minutes at 37° C. in complete media containing 20% FBS. They both bind to OVCAR3 FOLR1+ cells with similar binding affinities as the original heterobiligand studied (FIG. 14). […] Similar activity of these heterobiligands is anticipated in vivo.

[4] = target: human recombinant NEP (Homo sapiens, UniProt P08473); assay type: biochemical
Description: In order to test the susceptibility of GFK and MVK linkers to NEP-mediated cleavage, the peptide (Folate-hshta-Lys(MPBA)-Gly-Phe-Lys(DOTA) (SEQ ID NO:6)) was incubated with human recombinant NEP and analyzed the solution for the presence of cleaved adducts. MALDI was utilized to monitor the cleavage of a PCC heterobiligand that contains a NEP protease recognizable sequence (G-F-K). The PCC concentration was constant and the NEP concentration was titrated down from 10 nM to 1 nM, 0.1 nM, 0.01 nM, and no NEP. The NEP-mediated cleaved adduct was identified by mass. 10 μM PCC containing the GFK linker was combined with varying amounts of NEP. […] Below 0.1 nM no cleavage was observed. • Folate-hshta-Lys(MPBA)-Gly-Phe-Lys(DOTA) (SEQ ID NO:6) • Molecular weight 2231.42
The NEP-mediated cleavage was also monitored by HPLC. In agreement with the MALDI spectra, the HPLC chromatograms show depletion of the parent brush-border heterobiligand (retention time 17.1 minutes), dose-dependent on the amount of NEP spiked into the sample (10 nM, 1 nM, 0.1 nM, 0.01 nM, and no NEP). An appearance of a new peak (retention time 16.5 minutes) in concert with the depletion of the starting material is presumed to be the cleaved folate-containing peptide.
In order to test the specificity of NEP, a non-cleavable linker (PEG3) was also assayed.
To reduce the radioactive dose to the kidney, Indi ^177Lu-7327 was constructed to incorporate a GFK linker that is susceptible to cleavage by enzymes found predominately in the kidney's brush border. These enzymes cleave off the radionuclide-chelator complex, which is quickly eliminated by the kidney for excretion in the urine. The zinc metalloprotease neprilysin (NEP) is expressed with high abundance in the kidney. […] To confirm NEP-mediated cleavage of the GFK linker in Indi 7327, the peptide was incubated with recombinant human NEP at 37° C. for 1 h and analyzed by matrix-assisted laser desorption/ionization mass spectrometry (MALDI-MS) for the evolution of cleaved adducts (FIG. 42). […] The expected cleaved adduct (mass: 1283.16 m/z) appears in the samples containing 10, 1.0, and 0.1 nM NEP. […] Below 0.1 nM NEP, no cleavage was observed. In addition to confirming the selectivity of NEP for the GFK linker, it is also important to note that the remaining portions of the Indi 7327 were impervious to the enzyme.

Sequence of human recombinant NEP (P08473 whole entry): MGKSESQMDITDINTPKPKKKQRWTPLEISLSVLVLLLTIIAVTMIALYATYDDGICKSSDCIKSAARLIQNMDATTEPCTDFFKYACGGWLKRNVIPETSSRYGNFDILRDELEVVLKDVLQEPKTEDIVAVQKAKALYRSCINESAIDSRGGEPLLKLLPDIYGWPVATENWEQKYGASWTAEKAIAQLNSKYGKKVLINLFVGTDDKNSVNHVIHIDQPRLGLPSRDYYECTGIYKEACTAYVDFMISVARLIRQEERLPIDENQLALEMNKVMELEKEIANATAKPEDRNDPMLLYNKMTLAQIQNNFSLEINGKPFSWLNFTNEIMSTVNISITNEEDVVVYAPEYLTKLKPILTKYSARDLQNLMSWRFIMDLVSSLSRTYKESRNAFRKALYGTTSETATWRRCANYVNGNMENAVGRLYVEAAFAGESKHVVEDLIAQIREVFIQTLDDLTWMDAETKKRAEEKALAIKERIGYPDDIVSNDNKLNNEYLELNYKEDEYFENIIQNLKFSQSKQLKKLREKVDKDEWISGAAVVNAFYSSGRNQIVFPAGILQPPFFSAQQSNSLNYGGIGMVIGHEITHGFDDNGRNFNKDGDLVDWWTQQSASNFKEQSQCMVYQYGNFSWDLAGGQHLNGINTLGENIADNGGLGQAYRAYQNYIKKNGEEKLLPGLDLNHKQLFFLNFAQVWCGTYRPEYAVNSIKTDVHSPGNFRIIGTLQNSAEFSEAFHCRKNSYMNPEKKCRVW

| SMILES | selectivity for FOLR1 (+) cells over FOLR1 (−) cells [3] | in vitro Assay Data (NEP assay) [4] | recovery at 4 h, 2 μM ([1]; human) | fraction unbound at 4 h, 2 μM ([1]; human, plasma) | recovery at 4 h, 2 μM ([2]; CD-1, mouse) | fraction unbound at 4 h, 2 μM ([2]; CD-1, mouse, plasma) | other results |
| --- | --- | --- | --- | --- | --- | --- | --- |
| C[C@@H](O)[C@@H]1NC(=O)[C@H](CCCCN)NC(=O)[C@@H](Cc2c[nH]c3ccccc23)NC(=O)[C@H](Cc2ccccc2)NC(=O)[C@@H](NC(=O)[C@H](N)Cc2ccccc2)CSSC[C@@H](C(=O)N[C@H](CO)[C@@H](C)O)NC1=O [Octreotide Acetate, reference compound] |  |  |  |  |  |  | recovery at 4 h, 2 μM ([1]; Hu (human plasma), recovery in plasma protein binding assay, read-out: (% Recovery)): 84.3%; fraction unbound at 4 h, 2 μM ([1]; Hu (human plasma), read-out: Plasma % Bound): 0.406; recovery at 4 h, 2 μM ([2]; Mu (CD-1 mouse plasma), recovery in plasma protein binding assay, read-out: (% Recovery)): 84.5%; fraction unbound at 4 h, 2 μM ([2]; Mu (CD-1 mouse plasma), read-out: Plasma % Bound): 0.376 |
| C[C@H](O)[C@H]1NC(=O)[C@@H](Cc2c[nH]cn2)NC(=O)[C@@H](CO)NC(=O)[C@@H](Cc2c[nH]cn2)NC(=O)[C@@H](NC(=O)[C@H](Cc2cn(CCOCCOCCOCCNC(=O)CC[C@H](NC(=O)c3ccc(NCc4cnc5nc(N)[nH]c(=O)c5n4)cc3)C(=O)O)nn2)NC(=O)CCOCCOCCOCCOCCOCCOCCOCCOCCOCCOCCNC(=O)CCOCCOCCOCCOCCOCCOCCOCCOCCOCCOCCNC(=O)CCCC[C@@H]2SC[C@@H]3NC(=O)N[C@@H]32)Cc2cn(nn2)CCCC[C@@H](C(N)=O)NC(=O)[C@@H](C)NC1=O [Tz heterobiligand] | high selectivity for FOLR1 (+) cells |  |  |  |  |  |  |
| C[C@H](O)[C@H]1NC(=O)[C@@H](Cc2ccc(O)cc2)NC(=O)[C@@H](CCCNC(=N)N)NC(=O)[C@@H](CCC(=O)O)NC(=O)[C@@H](CC(=O)O)NC(=O)[C@@H](NC(=O)[C@H](Cc2cn(CCOCCOCCOCCNC(=O)CC[C@H](NC(=O)c3ccc(NCc4cnc5nc(N)[nH]c(=O)c5n4)cc3)C(=O)O)nn2)NC(=O)CCOCCOCCOCCOCCOCCOCCOCCOCCOCCOCCNC(=O)CCOCCOCCOCCOCCOCCOCCOCCOCCOCCOCCNC(=O)CCCC[C@@H]2SC[C@@H]3NC(=O)N[C@@H]32)Cc2cn(nn2)CCCC[C@@H](C(N)=O)NC1=O [Folate-deryt] | excellent selectivity for FOLR1 (+) cells |  |  |  |  |  |  |
| Cc1ccc(CCCC(=O)NCCCC[C@H](NC(=O)[C@@H]2CCCCn3cc(nn3)C[C@H](NC(=O)CC[C@H](NC(=O)c3ccc(NCc4cnc5nc(N)[nH]c(=O)c5n4)cc3)C(=O)O)C(=O)N[C@H](Cc3cnc[nH]3)C(=O)N[C@H](CO)C(=O)N[C@H](Cc3cnc[nH]3)C(=O)N[C@H]([C@H](C)O)C(=O)N[C@H](C)C(=O)N2)C(=O)NCC(=O)N[C@@H](Cc2ccccc2)C(=O)N[C@@H](CCCCNC(=O)CON)C(=O)O)cc1 [compound 3304, Fol-hshta-Lys(4-MPBA)-Gly-Phe-Lys(AO)] ({Pteroyl-γGlu}-[Pra][dH][dS][dH][dT][dA][Lys(N3)]K(Butanoyl(4-(4-MePh)))GFK(X2)-OH; triazole 1-7) |  | Cleavage of -G-F-K- |  |  |  |  |  |
| CSCC[C@H](NC(=O)[C@H](CCCCNC(=O)CCCc1ccc(I)cc1)NC(=O)[C@@H]1CCCCn2cc(nn2)C[C@H](NC(=O)CC[C@H](NC(=O)c2ccc(NCc3cnc4nc(N)[nH]c(=O)c4n3)cc2)C(=O)O)C(=O)N[C@H](Cc2c[nH]cn2)C(=O)N[C@H](CO)C(=O)N[C@H](Cc2c[nH]cn2)C(=O)N[C@H]([C@H](C)O)C(=O)N[C@H](C)C(=O)N1)C(=O)N[C@H](C(=O)N[C@@H](CCCCNC(=O)CN1CCN(CC(=O)O)CCN(CC(=O)O)CCN(CC(=O)O)CC1)C(=O)O)C(C)C [compound #1306, Fol-hshta-Lys(4-IPBA)-Met-Val-Lys(DOTA)] ({Pteroyl-γGlu}-[Pra][dH][dS][dH][dT][dA][Lys(N3)]K(Butanoyl(4-(4-I-phenyl)))MVK(DOTA)-OH; triazole 1-7) |  | Cleavage of -M-V-K- |  |  |  |  | recovery [1]: 84.8%; recovery [2]: 82.7% |
| Cc1ccc(CCCC(=O)NCCCC[C@@H](NC(=O)[C@H]2CCCCn3cc(nn3)CC(NC(=O)CC[C@H](NC(=O)c3ccc(NCc4cnc5nc(N)[nH]c(=O)c5n4)cc3)C(=O)O)C(=O)N[C@@H](Cc3cnc[nH]3)C(=O)N[C@@H](CO)C(=O)N[C@@H](Cc3cnc[nH]3)C(=O)N[C@@H]([C@@H](C)O)C(=O)N[C@@H](C)C(=O)N2)C(=O)NCC(=O)N[C@H](Cc2ccccc2)C(=O)N[C@H](CCCCNC(=O)COCCOCCOCCNC(=O)CN2CCN(CC(=O)O)CCN(CC(=O)O)CCN(CC(=O)O)CC2)C(=O)O)cc1 (stereo partly drawn) [compound 3302, Fol-hshta-Lys(4-MPBA)-Gly-Phe-Lys(PEG3-DOTA)] ({Pteroyl-γGlu}-[ξPra]HSHTA[dLys(N3)][dK](Butanoyl(4-(4-MePh)))G[dF][dK]([AEEEA-DOTA])-OH; triazole 1-7) |  | Cleavage of -G-F-K- | 88.1% | 0.051 | 103% | 0.035 |  |
| C[C@@H]1NC(=O)[C@H]([C@@H](C)O)NC(=O)[C@H](Cc2cnc[nH]2)NC(=O)[C@H](CO)NC(=O)[C@H](Cc2cnc[nH]2)NC(=O)C(NC(=O)CC[C@H](NC(=O)c2ccc(NCc3cnc4nc(N)[nH]c(=O)c4n3)cc2)C(=O)O)Cc2cn(nn2)CCCC[C@H](C(=O)NCCOCCOCCOCC(=O)NCC(=O)N[C@H](Cc2ccccc2)C(=O)N[C@H](CCCCNC(=O)CN2CCN(CC(=O)O)CCN(CC(=O)O)CCN(CC(=O)O)CC2)C(=O)O)NC1=O (stereo partly drawn) [compound 6307, Fol-hshta-PEG3-Gly-Phe-Lys(DOTA)] ({Pteroyl-γGlu}-[ξPra]HSHTA[dLys(N3)][AEEEA]G[dF][dK](DOTA)-OH; triazole 1-7) |  | Cleavage of -G-F-K- | 81.6% | 0.587 | 68.9% | 0.594 |  |
| C[C@@H]1NC(=O)[C@H]([C@@H](C)O)NC(=O)[C@H](Cc2cnc[nH]2)NC(=O)[C@H](CO)NC(=O)[C@H](Cc2cnc[nH]2)NC(=O)C(NC(=O)CC[C@H](NC(=O)c2ccc(NCc3cnc4nc(N)[nH]c(=O)c4n3)cc2)C(=O)O)Cc2cn(nn2)CCCC[C@H](C(=O)NCCOCCOCCOCC(=O)N[C@H](CCCCNC(=O)CN2CCN(CC(=O)O)CCN(CC(=O)O)CCN(CC(=O)O)CC2)C(N)=O)NC1=O (some centres unmarked) [compound 1189, Fol-hshta-PEG3-Lys(DOTA)] ({Pteroyl-γGlu}-[ξPra]HSHTA[dLys(N3)][AEEEA][dK](DOTA)-NH2; triazole 1-7) |  | resistant to NEP | 102% | 0.54 | 97.4% | 0.705 |  |
| C[C@H](O)[C@H]1NC(=O)[C@@H](CCC(=O)O)NC(=O)[C@@H](CCC(=O)O)NC(=O)[C@@H](Cc2ccc(O)cc2)NC(=O)[C@@H](CCCCN)NC(=O)[C@@H](NC(=O)COCCOCCOCCNC(=O)CCCC[C@@H]2SC[C@@H]3NC(=O)N[C@@H]32)Cc2cn(nn2)CCCC[C@@H](C(N)=O)NC1=O [kyeet] ({Biotin-AEEEA}-[Pra][dK][dY][dE][dE][dT][Lys(N3)]-NH2; triazole 1-7) | slight binding selectivity for FOLR1 (+) cells |  |  |  |  |  |  |
